{"source": "the supplement of paper PMC7125110", "parents": {"B1": {"name": "glmS ribozyme (parent)", "chain": "AUAAAAGCGCCAGAACUACAGAAAUGUAGUUGACGAGGAGGAGGUUUAUCGAAUUUUCGGCGGAUGCCUCCAAA"}}, "settings_in_all_cases": "with glucosamine-6-phosphate", "key": {"glucosamine-6-phosphate [1]": {"variants_of": "B1", "assay": "self-cleavage kobs at 40 uM GlcN6P; higher = faster cleavage; RNA array", "procedure,_shortened": "(§1)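 In situ transcription by E. coli RNA polymerase produced barcoded ribozyme variants on sequenced MiSeq chips, and a hybridised Cy3 probe tracked them at 37 °C. Glucosamine-6-phosphate was flowed in at 40 μM to 10 mM in HEPES/KCl/Mg(OAc)2 buffer. kcat and KM were taken from weighted Michaelis–Menten fits of kobs values from exponential decay fits.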"}, "glucosamine-6-phosphate [2]": {"variants_of": "B1", "assay": "self-cleavage kobs at 160 uM GlcN6P; higher = faster cleavage; RNA array", "procedure,_shortened": "as §1"}, "glucosamine-6-phosphate [3]": {"variants_of": "B1", "assay": "self-cleavage kobs at 640 uM GlcN6P; higher = faster cleavage; RNA array", "procedure,_shortened": "as §1"}, "glucosamine-6-phosphate [4]": {"variants_of": "B1", "assay": "self-cleavage kobs at 10000 uM GlcN6P; higher = faster cleavage; RNA array", "procedure,_shortened": "as §1"}, "glucosamine-6-phosphate [5]": {"variants_of": "B1", "assay": "self-cleavage kobs at 2500 uM GlcN6P; higher = faster cleavage; RNA array", "procedure,_shortened": "as §1"}}, "note": "± gives the standard error. Fewer inactive variants are shown than the library holds.", "data": [{"variant": "AUAAAAGCGCCAGAACUACAGAAAUGUAGUUGACGAGCUGGGGGUUUAUCGAAAUUUCGGCGGAUGGCUUCAAA", "note": "[G38C A39U A42G U54A C67G C70U]", "values": [{"measurement": "self-cleavage kobs at 40 uM GlcN6P", "setting": "glucosamine-6-phosphate [1]", "result": "< 1e-05", "unit": "s⁻¹"}]}, {"variant": "AUAAAAGCGCCAGAACUACAGAAAUGUAGUUGACGAGAAGGAGGUUUAUCGAAUUCUCGGCGGAUGCCUCCAAA", "note": "[G38A U56C]", "values": [{"measurement": "self-cleavage kobs at 40 uM GlcN6P", "setting": "glucosamine-6-phosphate [1]", "result": "< 1e-05", "unit": "s⁻¹"}, {"measurement": "self-cleavage kobs at 160 uM GlcN6P", "setting": "glucosamine-6-phosphate [2]", "result": "< 1e-05", "unit": "s⁻¹"}, {"measurement": "self-cleavage kobs at 640 uM GlcN6P", "setting": "glucosamine-6-phosphate [3]", "result": "< 1e-05", "unit": "s⁻¹"}, {"measurement": "self-cleavage kobs at 10000 uM GlcN6P", "setting": "glucosamine-6-phosphate [4]", "result": "< 1e-05", "unit": "s⁻¹"}]}, {"variant": "AUAAAAGCGCCAGAACUACAGAAAUGUAGUUGACGAGAAGGAGGUUUAUCGGAUUUUCGGCGGAUGCCUCCAAA", "note": "[G38A A52G]", "values": [{"measurement": "self-cleavage kobs at 40 uM GlcN6P", "setting": "glucosamine-6-phosphate [1]", "result": "< 1e-05", "unit": "s⁻¹"}, {"measurement": "self-cleavage kobs at 640 uM GlcN6P", "setting": "glucosamine-6-phosphate [3]", "result": "< 1e-05", "unit": "s⁻¹"}, {"measurement": "self-cleavage kobs at 2500 uM GlcN6P", "setting": "glucosamine-6-phosphate [5]", "result": "< 1e-05", "unit": "s⁻¹"}, {"measurement": "self-cleavage kobs at 10000 uM GlcN6P", "setting": "glucosamine-6-phosphate [4]", "result": "< 1e-05", "unit": "s⁻¹"}]}, {"variant": "AUAAAAGCGCCAGAACUACAGAAAUGUAGUUGACGAGAAGGAGGUUUAUCGAAUUUACGGCGGACGCCUCCAAA", "note": "[G38A U57A U65C]", "values": [{"measurement": "self-cleavage kobs at 40 uM GlcN6P", "setting": "glucosamine-6-phosphate [1]", "result": "< 1e-05", "unit": "s⁻¹"}]}, {"variant": "AUAAAAGCGCCAGAACUACAGAAAUGUAGUUGACGAGCAGGAGGUUUUUCGAAUUUUCGGCGGAUGCCUCCAAA", "note": "[G38C A48U]", "values": [{"measurement": "self-cleavage kobs at 40 uM GlcN6P", "setting": "glucosamine-6-phosphate [1]", "result": "< 1e-05", "unit": "s⁻¹"}, {"measurement": "self-cleavage kobs at 10000 uM GlcN6P", "setting": "glucosamine-6-phosphate [4]", "result": "< 1e-05", "unit": "s⁻¹"}]}, {"variant": "AUAAAAGCGCCAGAACUACAGAAAUGUAGUUGACGAGAAGGAGGUUUAGCGUAUUUUCGGCGGAUGCCUCCAAA", "note": "[G38A U49G A52U]", "values": [{"measurement": "self-cleavage kobs at 40 uM GlcN6P", "setting": "glucosamine-6-phosphate [1]", "result": "< 1e-05", "unit": "s⁻¹"}]}, {"variant": "AUAAAAGCGCCAGAACUACAGAAAUGUAGUUGACGAGAGGGAGGGUUAUGGAAUUUUCGGCGGAUGCCUCCAAA", "note": "[G38A A39G U45G C50G]", "values": [{"measurement": "self-cleavage kobs at 40 uM GlcN6P", "setting": "glucosamine-6-phosphate [1]", "result": "< 1e-05", "unit": "s⁻¹"}, {"measurement": "self-cleavage kobs at 2500 uM GlcN6P", "setting": "glucosamine-6-phosphate [5]", "result": "< 1e-05", "unit": "s⁻¹"}]}, {"variant": "AUAAAAGCGCCAGAACUACAGAAAUGUAGUUGACGAGAAGAAGGUUUAUCGAAUUUUCGGCGGAUGCCUCCAAA", "note": "[G38A G41A]", "values": [{"measurement": "self-cleavage kobs at 40 uM GlcN6P", "setting": "glucosamine-6-phosphate [1]", "result": "< 1e-05", "unit": "s⁻¹"}, {"measurement": "self-cleavage kobs at 160 uM GlcN6P", "setting": "glucosamine-6-phosphate [2]", "result": "< 1e-05", "unit": "s⁻¹"}, {"measurement": "self-cleavage kobs at 640 uM GlcN6P", "setting": "glucosamine-6-phosphate [3]", "result": "< 1e-05", "unit": "s⁻¹"}, {"measurement": "self-cleavage kobs at 2500 uM GlcN6P", "setting": "glucosamine-6-phosphate [5]", "result": "< 1e-05", "unit": "s⁻¹"}, {"measurement": "self-cleavage kobs at 10000 uM GlcN6P", "setting": "glucosamine-6-phosphate [4]", "result": "< 1e-05", "unit": "s⁻¹"}]}, {"variant": "AUAAAAGCGCCAGAACUACAGAAAUGUAGUUGACGAGAAGUAGGUUUAUCGAAUUUUCGGCGGAUGCCUCCAAA", "note": "[G38A G41U]", "values": [{"measurement": "self-cleavage kobs at 40 uM GlcN6P", "setting": "glucosamine-6-phosphate [1]", "result": "< 1e-05", "unit": "s⁻¹"}, {"measurement": "self-cleavage kobs at 160 uM GlcN6P", "setting": "glucosamine-6-phosphate [2]", "result": "< 1e-05", "unit": "s⁻¹"}, {"measurement": "self-cleavage kobs at 640 uM GlcN6P", "setting": "glucosamine-6-phosphate [3]", "result": "< 1e-05", "unit": "s⁻¹"}, {"measurement": "self-cleavage kobs at 10000 uM GlcN6P", "setting": "glucosamine-6-phosphate [4]", "result": "< 1e-05", "unit": "s⁻¹"}]}, {"variant": "AUAAAAGCGCCAGAACUACAGAAAUGUAGUUGACGAGAAGGAGGUGUAUCGUAUUUUCGGCGGAUGCCUCCAAA", "note": "[G38A U46G A52U]", "values": [{"measurement": "self-cleavage kobs at 40 uM GlcN6P", "setting": "glucosamine-6-phosphate [1]", "result": "< 1e-05", "unit": "s⁻¹"}]}, {"variant": "AUAAAAGCGCCAGAACUACAGAAAUGUAGUUGACGAGAAGGAGGUUAAUCGAAUUUUCGGCGGAUGCCUCGAAA", "note": "[G38A U47A C71G]", "values": [{"measurement": "self-cleavage kobs at 40 uM GlcN6P", "setting": "glucosamine-6-phosphate [1]", "result": "< 1e-05", "unit": "s⁻¹"}, {"measurement": "self-cleavage kobs at 10000 uM GlcN6P", "setting": "glucosamine-6-phosphate [4]", "result": "< 1e-05", "unit": "s⁻¹"}]}, {"variant": "AUAAAAGCGCCAGAACUACAGAAAUGUAGUUGACGAGAAGGCGGUUUAUCGAAUUUUCGGCGGAUGCCUCCAAA", "note": "[G38A A42C]", "values": [{"measurement": "self-cleavage kobs at 40 uM GlcN6P", "setting": "glucosamine-6-phosphate [1]", "result": "< 1e-05", "unit": "s⁻¹"}, {"measurement": "self-cleavage kobs at 10000 uM GlcN6P", "setting": "glucosamine-6-phosphate [4]", "result": "< 1e-05", "unit": "s⁻¹"}]}, {"variant": "AUAAAAGCGCCAGAACUACAGAAAUGUAGUUGACGAGCUGGAGGUUUAUCGAAUUUUCGGCGGAUGCCUCCAAA", "note": "[G38C A39U]", "values": [{"measurement": "self-cleavage kobs at 40 uM GlcN6P", "setting": "glucosamine-6-phosphate [1]", "result": "< 1e-05", "unit": "s⁻¹"}, {"measurement": "self-cleavage kobs at 640 uM GlcN6P", "setting": "glucosamine-6-phosphate [3]", "result": "< 1e-05", "unit": "s⁻¹"}]}, {"variant": "AUAAAAGCGCCAGAACUACAGAAAUGUAGUUGACGAGAAGUAGGUCUAUCGAAUUUUCGGCGGAUGCCUCCAAA", "note": "[G38A G41U U46C]", "values": [{"measurement": "self-cleavage kobs at 40 uM GlcN6P", "setting": "glucosamine-6-phosphate [1]", "result": "< 1e-05", "unit": "s⁻¹"}, {"measurement": "self-cleavage kobs at 10000 uM GlcN6P", "setting": "glucosamine-6-phosphate [4]", "result": "< 1e-05", "unit": "s⁻¹"}]}, {"variant": "AUAAAAGCGCCAGAACUACAGAAAUGUAGUUGACGAGAAGGAGGUUUAUGGAAUUUUCGGCGGAUGCUUCCAAA", "note": "[G38A C50G C68U]", "values": [{"measurement": "self-cleavage kobs at 40 uM GlcN6P", "setting": "glucosamine-6-phosphate [1]", "result": "7.89e-05 ± 2.3e-05", "unit": "s⁻¹"}, {"measurement": "self-cleavage kobs at 640 uM GlcN6P", "setting": "glucosamine-6-phosphate [3]", "result": "8.33e-05 ± 3.1e-05", "unit": "s⁻¹"}, {"measurement": "self-cleavage kobs at 2500 uM GlcN6P", "setting": "glucosamine-6-phosphate [5]", "result": "0.000109 ± 2.4e-05", "unit": "s⁻¹"}, {"measurement": "self-cleavage kobs at 10000 uM GlcN6P", "setting": "glucosamine-6-phosphate [4]", "result": "4.82e-05 ± 1.5e-05", "unit": "s⁻¹"}]}]}
